Assay results from the RNAGym collection of RNA variant scans (doi:10.1073/pnas.2313332121).

B1: TPR t1 (parent)
chain: GACCAAUCUGCCCUCAGAGCUCGAGAACAUCUUCGGAUGCAGAGGAGGCAGGCUUCGGUGGCGCGAUAGCGCCAACGUCCUCAACCUCCAAUGCAUCCCACCACAUGAUGAUGCCUGAAGAGCCUUGGUUUUUUG

Variants of: B1
Test: polymerase ribozyme fitness, log enrichment relative to wild type (log ratio); higher = more active; in vitro selection for triplet polymerase activity
Method in brief: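 One round of in vitro selection, in triplicate, was applied to PCR-built, transcribed mutant libraries of each subunit of a heterodimeric triplet polymerase ribozyme. The steps were annealing with a biotinylated primer, partner subunit and triplets, incubation frozen at −7 °C, gel excision of extended constructs, streptavidin-bead capture and RT-PCR. Fitness is the logarithm, base 2, of genotype enrichment over wild-type enrichment from inverse-variance-weighted replicate averages of Illumina-sequenced inputs and outputs, keeping genotypes with ≥10 input reads and ≥1 read per output.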

Row | Variant | polymerase ribozyme fitness (log ratio)
1 | C40U C94U | -1.54
2 | A43C A74G C101A A111G | -3.37
3 | A41C A74G C98U | -1.89
4 | G42U G51C | -6.75
5 | C40U A41C G71A | -2.9
6 | A41U G77U C88G A111U | -6.76
7 | A41G C70U C82A U125G | -1.79
8 | C40U C72G U106A C123G U126A U131A | -1.25
9 | C40G U55G U78G | -2.04
10 | A41U U81A A121C | -0.475
11 | G42C C101U | -1.45
12 | A41G G45A A50C C123U | -0.694
13 | A41U G120U | -1.11
14 | C40U G61U A119U G122U | -0.621
15 | A41C C56G C85U C102U | -5.51
16 | A41G U112C | 0.756
17 | G42A U55A C82G | -2.94
18 | G42A C56A U96G | -2.79
19 | G42A G71A | -3.35
20 | G42A C85G G93A | -3.19
21 | A41C U112A | 0.299

Row | Variant | polymerase ribozyme fitness (log ratio)
22 | G42C A50C A105G | -5.66
23 | G42A C124A | -0.186
24 | C40U G48A A50C C72A | 0.216
25 | A41C U126G U130G | -4.83
26 | G42C G44U A74C C99A C123G | -6.31
27 | A41C A74U U87C | -0.35
28 | G42A C53U C64U U106A A119G | -1.87
29 | G42U G57U C85A | -2.51
30 | G42U A74G C85A | -1.78
31 | G42C G45U G48U U131G | -3.09
32 | C40U G51U G58A | -4.36
33 | A41U U87A | -1.14
34 | C40U G45U G48U C82G A84G G120A | -2.88
35 | C40U A90U | -1.76
36 | G42U G48A C104U | -0.902
37 | C40U U59C C85G | -2.73
38 | A41U G51A U87G U112A A119G | -4.72
39 | A41U C64U | -1.24
40 | G42A C101U | -1.9
41 | C40U G48U A50C G51A | -3.99
42 | A41G U106A | -0.451

Row | Variant | polymerase ribozyme fitness (log ratio)
43 | G42U G63A C89U | -3.28
44 | A41U C76A U81A | -1.77
45 | G42A C85G C86G U129C | -4.79
46 | C40U U92C G110A G117C | -6.39
47 | G42C G48U C70A G120U | -5.45
48 | A41C C53U G122A | -2.04
49 | A41U U54C C124U | 1
50 | C40G U59A C72U G110C G117A A119C U129G U133G | -7.24
51 | A41C C56G A74C | -5.29
52 | A41C C53U | -0.83
53 | G42U G52C C97G C115U | -6.37
54 | G42C G61A | -0.466
55 | A41C C73G C85A A118U | -3.17
56 | G42U U87C C123A U131C | -0.903
57 | C40U C70A C85U G135U | -4.91
58 | G42A U54A C72G C86U G110A C124G | -4.88
59 | A41U U130C | -1.35
60 | A41U G135U | -2.4
61 | G42C C73G C79U A95G U129C | -3.37
62 | C40U C62U G135U | -1.68
63 | G42A U106C | -2.12

Row | Variant | polymerase ribozyme fitness (log ratio)
64 | G42A G77A | -2.61
65 | G42A G127U | -2.7
66 | C40U G44A A121U | 0.301
67 | A41U G45C C114A | -4.37
68 | A41U A83C G110A | -4
69 | G42C C94A | -2.23
70 | A41G A95G C114U | -2.64
71 | A41U A43G G48A G63A A90G C104U G120U | -4.4
72 | A41C C70U | -2.04
73 | A41C C70G | -3.91
74 | A41G G61U C94U | -0.449
75 | A41U C80A C104U | -6.34
76 | G42A C72A C104A U130C | -5.17
77 | A41G C99U C124A | -2.72
78 | G42C C53A C85U C114G C124U U133G | -3.5
79 | C40U C73U | -0.508
80 | G42C C49A G69U A90U U109G G128U | -6.14
81 | C40G U112A | 1.38
82 | A41U G45U | -1.99
83 | C40U C73G C123G U132A | 0.0747
84 | G42U A46U U96G | -2.26
